Changes are numbered by the printed parent chain. Names and notes keep the numbering of the source. Values joined by “and” are separate entries in the source; they are usually repeats but may differ in a detail not shown here. Equal entries are not always repeated. Where two headings read alike, the source gives them in different places.

The text below walks through data of PMC7000732, “Bridging non-overlapping reads illuminates high-order epistasis between distal protein sites in a GPCR” (Nature Communications, 2020).

A short description of experiment [1]: FACS-based screen of A2aR library with deep sequencing (BRIDGE): variant enrichment. The format is cell-based, Saccharomyces cerevisiae.
Experiment [2] in a line: Fluorescent ligand binding measured by flow cytometry. More on the design: species or system Saccharomyces cerevisiae. The conditions noted are these: for fluorescent ligand binding signal / % pop above background / Mean Singlet Fluorescence Intensity (530 nm): replicates; for % pop above background / Mean Singlet Fluorescence Intensity (530 nm): incubated with FITC-APEC.
The nature of experiment [3]: Whole-cell saturation radioligand binding. Details: species or system Saccharomyces cerevisiae. The note with it: for Kd: 3H-NECA, whole yeast cells, pH 5.8, mean ± SD of three biological replicates, read-out: equilibrium dissociation constant (Kd); for CPM: raw replicate counts, empty vector not subtracted; for fold greater 3H-NECA binding affinity than wild-type receptor: ratio of Kd to wild-type.

The mark [4] stands for this setting: naive to PS4 library (PS4/naive), high-stringency gating, 10 µM FITC-APEC.

“WT: wild-type human adenosine A2a receptor, decahistidine-tagged, expressed in yeast from centromeric pYC vector [reference compound]”: the Enrichment rate worked out at 0.3 in experiment [1] (setting [4]) and 0.30 fold in experiment [1] (naive to PS4 population). Besides, the “fluorescent ligand binding signal” value in experiment [2] ([FITC-APEC] 10 nM, Supplementary Figure 1 source data, listed as pYC A2a10H) is 101 and 100 and 99; in experiment [2] ([FITC-APEC] 10 nM, Supplementary Figure 4 source data, listed as pYC A2a10H), 104 and 103 and 102; in experiment [2] ([FITC-APEC] 100 nM, Supplementary Figure 1 source data, listed as pYC A2a10H), 111 and 108 and 134; in experiment [2] ([FITC-APEC] 100 nM, Supplementary Figure 4 source data, listed as pYC A2a10H) it was 114 and 110 and 133; in experiment [2] ([FITC-APEC] 1000 nM, Supplementary Figure 1 source data, listed as pYC A2a10H) it was 208 and 180 and 189; in experiment [2] ([FITC-APEC] 1000 nM, Supplementary Figure 4 source data, listed as pYC A2a10H), 206 and 184 and 191. Besides, the “fluorescent ligand binding signal” value in experiment [2] ([FITC-APEC] 10000 nM, Supplementary Figure 1 source data, listed as pYC A2a10H) was 370 and 353 and 396; in experiment [2] ([FITC-APEC] 10000 nM, Supplementary Figure 4 source data, listed as pYC A2a10H), 377 and 330 and 373; in experiment [2] ([FITC-APEC] 50000 nM, Supplementary Figure 1 source data, listed as pYC A2a10H) it was 442 and 457 and 477; in experiment [2] ([FITC-APEC] 50000 nM, Supplementary Figure 4 source data, listed as pYC A2a10H), 354 and 386 and 364. Moreover, in experiment [3], the Kd was determined as 39.2 ± 4.8 nM. In addition, the CPM in experiment [3] ([3H-NECA] 1.6 nM) is 64 CPM and 47 CPM and 35 CPM; in experiment [3] ([3H-NECA] 3.1 nM) it was 108 CPM and 89 CPM and 54 CPM; in experiment [3] ([3H-NECA] 6.3 nM) it was 192 CPM and 223 CPM and 155 CPM; in experiment [3] ([3H-NECA] 12.5 nM), 331 CPM and 408 CPM and 255 CPM; in experiment [3] ([3H-NECA] 25 nM), 470 CPM and 533 CPM and 388 CPM; in experiment [3] ([3H-NECA] 50 nM) it was 546 CPM and 694 CPM and 708 CPM. The CPM in experiment [3] ([3H-NECA] 100 nM) is 805 CPM and 900 CPM and 958 CPM; in experiment [3] ([3H-NECA] 200 nM), 1026 CPM and 1370 CPM and 1371 CPM; in experiment [3] ([3H-NECA] 400 nM), 1047 CPM and 2304 CPM and 1995 CPM.
“pITy A2a10H: decahistidine-tagged wild-type A2aR expressed in yeast from multi-site-integrating pITy vector”: the “% pop above background” value in experiment [2] (+raffinose) was 97.3% and 99.1% and 99.7%; in experiment [2] (-raffinose), 88.4% and 92.7% and 86.6%. Moreover, the “Mean Singlet Fluorescence Intensity (530 nm)” value was 1177 a.u. and 1389 a.u. and 1621 a.u in experiment [2] (+raffinose); 853 a.u. and 1341 a.u. and 1013 a.u in experiment [2] (-raffinose). Also, the “fluorescent ligand binding signal” value in experiment [2] ([FITC-APEC] 10 nM, Supplementary Figure 1 source data) was 102 and 103 and 101; in experiment [2] ([FITC-APEC] 100 nM, Supplementary Figure 1 source data), 124 and 112 and 118; in experiment [2] ([FITC-APEC] 1000 nM, Supplementary Figure 1 source data) it was 357 and 323 and 352; in experiment [2] ([FITC-APEC] 10000 nM, Supplementary Figure 1 source data), 1097 and 999 and 1047; in experiment [2] ([FITC-APEC] 50000 nM, Supplementary Figure 1 source data) it was 1681 and 1267 and 1322.

B1: TGRIA: Variant GRIA (T88/Q89G/W246R/L249I/H250A) of human adenosine A2a receptor (protein, UniProt P29274 1-412, looked up, variant Q89G W246R L249I H250A)
Adenosine receptor A2a: MPIMGSSVYITVELAIAVLAILGNVLVCWAVWLNSNLQNVTNYFVVSLAAADIAVGVLAIPFAITISTGFCAACHGCLFIACFVLVLTGSSIFSLLAIAIDRYIAIRIPLRYNGLVTGTRAKGIIAICWVLSFAIGLTPMLGWNNCGQPKEGKNHSQGCGEGQVACLFEDVVPMNYMVYFNFFACVLVPLLLMLGVYLRIFLAARRQLKQMESQPLPGERARSTLQKEVHAAKSLAIIVGLFALCRLPIAIINCFTFFCPDCSHAPLWLMYLAIVLSHTNSVVNPFIYAYRIREFRQTFRKIIRSHVLRQQEPFKAAGTSARVLAAHGSDGEQVSLRLNGHPPGVWANGSAPHPERRPNGYALGLVSGGSAQESQGNTGLPDVELLSHELKGVCPEPPGLDDPLAQDGAGVS
As to B1, in experiment [1] (setting [4]), the Enrichment rate was 517. Further, in experiment [1] (naive to PS4 library, WT rate 0.30), the “Fold increase in enrichment rate over WT” value came to 1722 fold. The Kd in experiment [3] is 10.9 ± 0.8 nM. Also, the CPM is 148 CPM and 222 CPM and 182 CPM in experiment [3] ([3H-NECA] 1.6 nM); 317 CPM and 337 CPM and 348 CPM in experiment [3] ([3H-NECA] 3.1 nM); 477 CPM and 597 CPM and 529 CPM in experiment [3] ([3H-NECA] 6.3 nM); 612 CPM and 847 CPM and 800 CPM in experiment [3] ([3H-NECA] 12.5 nM); 815 CPM and 1157 CPM and 1066 CPM in experiment [3] ([3H-NECA] 25 nM); 1152 CPM and 1391 CPM and 1352 CPM in experiment [3] ([3H-NECA] 50 nM). Further, the CPM in experiment [3] ([3H-NECA] 100 nM) was 1488 CPM and 1655 CPM and 1630 CPM; in experiment [3] ([3H-NECA] 200 nM), 1857 CPM and 2089 CPM and 2112 CPM; in experiment [3] ([3H-NECA] 400 nM), 2326 CPM and 2813 CPM and 3169 CPM. Besides, the “fold greater 3H-NECA binding affinity than wild-type receptor” value in experiment [3] is reported as “fourfold”.

B2: SLNIG: A2aR variant; letters are residues at T88, Q89, W246, L249, H250 (protein, UniProt P29274 1-412, looked up, variant T88S Q89L W246N L249I H250G)
Adenosine receptor A2a: B1 Adenosine receptor A2a with T88S, G89L, R246N, A250G
B2 returned an Enrichment rate in experiment [1] of 791. In addition, the “Fold increase in enrichment rate over WT” value in experiment [1] was 2635 fold. The Kd in experiment [3] was found to be 10.7 ± 0.6 nM. Also, the CPM was 138 CPM and 195 CPM and 220 CPM in experiment [3] ([3H-NECA] 1.6 nM); 282 CPM and 376 CPM and 382 CPM in experiment [3] ([3H-NECA] 3.1 nM); 494 CPM and 563 CPM and 618 CPM in experiment [3] ([3H-NECA] 6.3 nM); 783 CPM and 767 CPM and 883 CPM in experiment [3] ([3H-NECA] 12.5 nM); 861 CPM and 1199 CPM and 1152 CPM in experiment [3] ([3H-NECA] 25 nM); 1216 CPM and 1410 CPM and 1521 CPM in experiment [3] ([3H-NECA] 50 nM). The CPM in experiment [3] ([3H-NECA] 100 nM) was 1341 CPM and 1416 CPM and 1794 CPM; in experiment [3] ([3H-NECA] 200 nM) it was 1692 CPM and 1849 CPM and 2050 CPM; in experiment [3] ([3H-NECA] 400 nM), 2037 CPM and 2595 CPM and 2482 CPM.

B3: C28A/C82A/C128A/C185A/C245S/C254A/C394S: inactive A2aR variant that does not bind ligand (protein, UniProt P29274 1-412, looked up, variant C28A C82A C128A C185A C245S C254A C394S)
Adenosine receptor A2a: MPIMGSSVYITVELAIAVLAILGNVLVAWAVWLNSNLQNVTNYFVVSLAAADIAVGVLAIPFAITISTGFCAACHGCLFIAAFVLVLTQSSIFSLLAIAIDRYIAIRIPLRYNGLVTGTRAKGIIAIAWVLSFAIGLTPMLGWNNCGQPKEGKNHSQGCGEGQVACLFEDVVPMNYMVYFNFFAAVLVPLLLMLGVYLRIFLAARRQLKQMESQPLPGERARSTLQKEVHAAKSLAIIVGLFALSWLPLHIINAFTFFCPDCSHAPLWLMYLAIVLSHTNSVVNPFIYAYRIREFRQTFRKIIRSHVLRQQEPFKAAGTSARVLAAHGSDGEQVSLRLNGHPPGVWANGSAPHPERRPNGYALGLVSGGSAQESQGNTGLPDVELLSHELKGVSPEPPGLDDPLAQDGAGVS
Regarding B3, the “fluorescent ligand binding, result in words” value in experiment [2] (FITC-APEC, yeast cells) is “does not bind ligand”.

B4: TSWLH: single-residue mutant Q89S of A2aR, the most abundant variant in PS4 (protein, UniProt P29274 1-412, looked up, variant Q89S)
Adenosine receptor A2a: B1 Adenosine receptor A2a with G89S, R246W, I249L, A250H
For the molecule B4, the “Fold increase in enrichment rate over WT” value in experiment [1] is listed as 1121 fold. The dissociation constant Kd in experiment [3] was 11.8 ± 1 nM. Besides, the CPM was 269 CPM and 283 CPM and 176 CPM in experiment [3] ([3H-NECA] 1.6 nM); 574 CPM and 478 CPM and 918 CPM in experiment [3] ([3H-NECA] 3.1 nM); 877 CPM and 818 CPM and 594 CPM in experiment [3] ([3H-NECA] 6.3 nM); 1293 CPM and 1161 CPM and 783 CPM in experiment [3] ([3H-NECA] 12.5 nM); 1556 CPM and 1523 CPM and 1194 CPM in experiment [3] ([3H-NECA] 25 nM); 2099 CPM and 1735 CPM and 1402 CPM in experiment [3] ([3H-NECA] 50 nM). For the same molecule, the CPM in experiment [3] ([3H-NECA] 100 nM) was 2533 CPM and 2165 CPM and 1719 CPM; in experiment [3] ([3H-NECA] 200 nM), 2889 CPM and 2229 CPM and 2151 CPM; in experiment [3] ([3H-NECA] 400 nM) it was 3382 CPM and 2947 CPM and 2944 CPM. Further, the “fold greater 3H-NECA binding affinity than wild-type receptor” value in experiment [3] was “fourfold”.

By Kd is commonly meant the concentration at which binding is half-saturated.
